The record followed here is publication PMC10783487.

For series [1], the target named is T1, TbrCan2 E341A (Thermoanaerobacter brockii subsp. …, UniProt E8URK0 1-437, E341A).
T1 sequence: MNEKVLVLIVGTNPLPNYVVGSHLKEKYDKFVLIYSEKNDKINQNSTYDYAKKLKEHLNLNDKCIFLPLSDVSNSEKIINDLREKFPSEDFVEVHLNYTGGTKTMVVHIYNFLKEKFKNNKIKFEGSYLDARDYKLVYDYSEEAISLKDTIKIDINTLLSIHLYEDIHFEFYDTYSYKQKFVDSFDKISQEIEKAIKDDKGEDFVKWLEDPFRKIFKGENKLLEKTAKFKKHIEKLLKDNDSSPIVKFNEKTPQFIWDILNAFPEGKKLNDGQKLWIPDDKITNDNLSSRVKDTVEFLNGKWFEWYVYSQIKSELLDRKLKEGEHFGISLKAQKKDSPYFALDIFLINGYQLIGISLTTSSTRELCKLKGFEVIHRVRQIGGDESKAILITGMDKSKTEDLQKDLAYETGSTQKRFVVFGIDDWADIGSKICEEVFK
Nature of the series: EMSA. In general terms: A gel shift assay detects complexes by their altered migration in electrophoresis.

Series [2] has as its target T1, TbrCan2 E341A. The series can be described thus: crystal structure 2.4 A.
Another series addresses T2, TbrCan2 E364R (Thermoanaerobacter brockii subsp. …, UniProt E8URK0 1-437, E364R).
T2 sequence: T1 sequence with A341E, E364R
Nature of the series: crystal structure.

In series [3] the target is T1, TbrCan2 E341A. The series can be described thus: crystal structure 2.0 A.
Series [4] has as its target T1, TbrCan2 E341A. Nature of the series: crystal structure 2.3 A.

Where a chain is given by its changes, count along the chain named.

B1: rU15 (ssRNA)
RNA: UUUUUUUUUUUUUUU
For B1, the binding result with TbrCan2 E341A [1] is on record as “no binding”.

B2: dT15 (dKJ62) (ssDNA)
DNA: TTTTTTTTTTTTTTT
B2: in the series with TbrCan2 E341A [1], the binding result is reported as “no binding”.

B3: T7-G3-T20 DNA (dKJ72) (ssDNA)
DNA: TTTTTTTGGGTTTTTTTTTTTTTTTTTTTT
Consider B3, for which the binding result with TbrCan2 E341A [1] is reported as “no binding”.

B4: TTTAAA (dKJ44) (ssDNA)
DNA: TTTAAA
On to B4, for which the binding result with TbrCan2 E341A [2] is listed as “binds”.

B5: dT6 (dKJ46) (ssDNA)
DNA: TTTTTT
For the molecule B5, in the series with TbrCan2 E364R, the binding result is on record as “binds”.

B6: U7-G3-U20 RNA (rKJ10) (ssRNA)
RNA: UUUUUUUGGGUUUUUUUUUUUUUUUUUUUU
For B6, the binding result in the series with TbrCan2 E341A [1] was “no binding”.

B7: rA15 (ssRNA)
RNA: AAAAAAAAAAAAAAA
With B7, in the series with TbrCan2 E341A [1], the binding result is “binds”.

B8: dA6 (dKJ42) (ssDNA)
DNA: AAAAAA
For the molecule B8, in the series with TbrCan2 E341A [3], the binding result is listed as “binds”.

B9: dC6 (ssDNA)
DNA: CCCCCC
As for B9, in the series with TbrCan2 E341A [4], the binding result is given as “binds”.
